Where two headings read alike, the source gives them in different places.

Holding throughout (assay): BLI
For orientation: BLI is a label-free optical method that tracks binding on a fibre tip over time.

Experiment [1] addresses T1, influenza hemagglutinin (HA) from H1N1 A/California/07/2009 (influenza A virus H1N1 …).
The target of experiment [2] is His6-tagged SARS-CoV-2 receptor-binding domain (SARS-CoV-2, UniProt P0DTC2).
Experiment [3] concerns the target HCV (isolate H77) E2 domain (HCV (isolate H77)).
The target in experiment [4] is T2, biotinylated αTSR domain of P. falciparum circumsporozoite protein (P. falciparum, biotinylated).
T2 chain: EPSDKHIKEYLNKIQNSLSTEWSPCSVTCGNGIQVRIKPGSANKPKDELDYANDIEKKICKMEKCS

The target in experiment [5] is T1, influenza hemagglutinin (HA) from H1N1 …. This is another data set of the same source.
Experiment [6] has as its target T3, biotinylated SARS-CoV-2 fusion peptide (SARS-CoV-2, biotin on the N-terminus).
T3 peptide: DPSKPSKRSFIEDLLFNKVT

Experiment [7] deals with His-tagged HIV Env MPER peptide (HIV).

B1: 3E1 Fab (WT) (Fab, V domains shown)
VH: QVQLQESGPGLVKPSETLSLTCSVSGASISSYYWIWIRQPAGKGLEWIGRFYTSGSPNYNPSLRSRVTMSVDTSKNQFSLKLTSVTAADTAVYYCAREEHITFGGVIVRYWGQGTLVTVSP
VL: DIQMTQSPATLSASVGDRVSITCRASQSISSWLAWYQQKPGKAPKLLIYKASSLESGVPSRFSGSGSGSEFTLTISSLQPDDFAIYYCQQYNSYPWTFGQGTKVEIK
In turn, B1 showed a Kd in experiment [1] of 6.9 nM.

B2: GAR12 Fab (WT) (Fab, V domains shown)
VH: EVQLVQSGGGLVQPGGSLRLSCAASGFTFSSYAMSWVRQAPGKGLEWVLSISGSGGSTYYADSVKGRFTISIDNSKKTVYLQMNSLRAEDTAVYYCAKSGEQQLVQAEYFHHWGQGTLVTVSS
VL: DIQMTQSPSTLSASVGDRVTITCRASQSIGRWLAWYQQKPGKAPKLLIYDASSLESGVPSRFSGSGFGTEFTLTISSLQPDDFATYYCQQCDSLLTFGGGTKLEIK
With B2, the Kd in experiment [2] was found to be 3.5 nM.

B3: GAR12 Fab VL D50K (Fab, V domains shown)
VH: EVQLVQSGGGLVQPGGSLRLSCAASGFTFSSYAMSWVRQAPGKGLEWVLSISGSGGSTYYADSVKGRFTISIDNSKKTVYLQMNSLRAEDTAVYYCAKSGEQQLVQAEYFHHWGQGTLVTVSS
VL: DIQMTQSPSTLSASVGDRVTITCRASQSIGRWLAWYQQKPGKAPKLLIYKASSLESGVPSRFSGSGFGTEFTLTISSLQPDDFATYYCQQCDSLLTFGGGTKLEIK
In the case of B3, in experiment [2], the Kd was 153 nM.

B4: HC84.26.5D Fab (WT) (Fab, V domains shown)
VH: VQPVQSGAEVKKPGSSVKVSCEASGGTHSNYVITWVRQAPGQGLEWMGGFIPDFRTAMYAQGFQGRVTITADESTSLAYMELTNLRSEDTAVYYCARGPLSRGYYDYWGPGTLVTVSS
VL: YVLTQPPSVSVAPGQTASITCSGDKLGDKYVSWYQQRPGQSPVLVLYQDSKRPSGIPERFSGSNSGNTATLTISGTQAMDEADYYCQAWDSSALVFGGGTKLTVL
Consider B4, for which the Kd in experiment [3] turned out to be 0.9 nM.

B5: Fab234 (WT) (Fab, V domains shown)
VH: EVQLVESGGGLVKPGGSLRLSCAASGFNFSTHIMNWVRQAPGKGLEWVSSISSSGTYIYYADSMKGRFTISRDNPKNSLYLQMNSLRAEDTAVYYCARARGFIQFHYYMDVWGKGTTVAVSS
VL: SYVLTQPPSVSVAPGKTARITCGGNNIGSKSVHWHQQRPGQAPVLVVYDDKIRPSGIPERFSGSNSGNTATLIISRVEAGDEADYYCQVWHSSSDPVVFGGGTKLTVL
For the molecule B5, the Kd in experiment [4] is 0.2 nM.

B6: 5J8 Fab (WT) (Fab, V domains shown)
VH: EVQLVESGPGLVKPSDILSLTCAVSGYSISSNYYWGWIRQPPGKGLEWIGSIYHSGSTYYKPSLESRLGISVDTSKNQFSLKLSFVSAADTAVYYCARHVRSGYPDTAYYFDKWGQGTLVTVSS
VL: SYVLTQPPSVSVAPGETARISCGGNNIGTKVLHWYQQTPGQAPVLVVYDDSDRPSGIPERFSGSNSGNTATLTISRVEVGDEADYYCQVWDISTDQAVFGGGTKLTVL
In experiment [5], B6 came in with a Kd of 4 nM.

B7: COV44–62 Fab (WT) (Fab, V domains shown)
VH: QMQLMQSGAEVKKPGASVTVSCKASGDTFSDYRIHWVRQAPGQGLEWMGRMNPKSGDTNFAQKFQGRVTMTRDMSINTAYMTLSGLTFDDTALYYCASLLIVGGFDPLDDFEVWGQGTMVTISS
VL: QSALTQPPSASGSPGQSVTISCSGTSSDVGGYNFVSWYQHHPGKAPKILIYEVTKRPSGVPDRFSGSKSGNTASLTVSGLQAEDEADYYCSSYGGTNNLLFGGGTKLTVL
In experiment [6], B7 yielded a Kd of 26 nM.

B8: 4E10 Fab (WT) (Fab, V domains shown)
VH: QVQLVQSGAEVKRPGSSVTVSCKASGGSFSTYALSWVRQAPGRGLEWMGGVIPLLTITNYAPRFQGRITITADRSTSTAYLELNSLRPEDTAVYYCAREGTTGWGWLGKPIGAFAHWGQGTLVTVSS
VL: EIVLTQSPGTQSLSPGERATLSCRASQSVGNNKLAWYQQRPGQAPRLLIYGASSRPSGVADRFSGSGSGTDFTLTISRLEPEDFAVYYCQQYGQSLSTFGQGTKVEVK
The molecule B8 returned a Kd in experiment [7] of 9.1 nM.

In general, Kd refers to the concentration at which binding is half-saturated.
